Results published in paper PMC3310434 (Tuberculosis (Edinburgh, Scotland), 2011).

Key:
[1] = molecular target: the molecule itself; assay: dynamic light scattering
[2] = molecular target: the molecule itself; assay: crystal structure
[3] = molecular target: the molecule itself; assay: crystal structure; remark: listed apart in the source
[4] = molecular target: T1, VapC-3 toxin of Mtb VapBC-3 (Rv0300-Rv0301) (Mycobacterium tuberculosis, UniProt P9WFB9 2-141); assay: crystal structure
T1 sequence: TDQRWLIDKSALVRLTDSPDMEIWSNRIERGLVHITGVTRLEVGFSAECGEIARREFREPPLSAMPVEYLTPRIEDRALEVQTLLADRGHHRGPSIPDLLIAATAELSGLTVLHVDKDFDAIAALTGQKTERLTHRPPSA

B1: Rv0812, putative Mtb 4-amino-4-deoxychorismate (ADC) lyase (PabC) (enzyme)
chain: MVVTLDGEILQPGMPLLHADDLAAVRGDGVFETLLVRDGRACLVEAHLQRLTQSARLMDLPEPDLPRWRRAVEVATQRWVASTADEGALRLIYSRGREGGSAPTAYVMVSPVPARVIGARRDGVSAITLDRGLPADGGDAMPWLIASAKTLSYAVNMAVLRHAARQGAGDVIFVSTDGYVLEGPRSTVVIATDGDQGGGNPCLLTPPPWYPILRGTTQQALFEVARAKGYDCDYRALRVADLFDSQGIWLVSSMTLAARVHTLDGRRLPRTPIAEVFAELVDAAIVSDR
In the case of B1, the “stoichiometry N” value [1] is reported as 2.

B2: Mtb fumarase (enzyme)
chain: MAVDADSANYRIEHDTMGEVRVPAKALWRAQTQRAVENFPISGRGLERTQIRALGLLKGACAQVNSDLGLLAPEKADAIIAAAAEIADGQHDDQFPIDVFQTGSGTSSNMNTNEVIASIAAKGGVTLHPNDDVNMSQSSNDTFPTATHIAATEAAVAHLIPALQQLHDALAAKALDWHTVVKSGRTHLMDAVPVTLGQEFSGYARQIEAGIERVRACLPRLGELAIGGTAVGTGLNAPDDFGVRVVAVLVAQTGLSELRTAANSFEAQAARDGLVEASGALRTIAVSLTKIANDIRWMGSGPLTGLAEIQLPDLQPGSSIMPGKVNPVLPEAVTQVAAQVIGNDAAIAWGGANGAFELNVYIPMMARNILESFKLLTNVSRLFAQRCIAGLTANVEHLRRLAESSPSIVTPLNSAIGYEEAAAVAKQALKERKTIRQTVIDRGLIGDRLSIEDLDRRLDVLAMAKAEQLDSDRL
In the case of B2, the “stoichiometry N” value [2] is reported as 4.

B3: VapB-3 antitoxin of Mtb VapBC-3 (Rv0300-Rv0301) (natural protein)
chain: MSDVLIRDIPDDVLASLDAIAARLGLSRTEYIRRRLAQDAQTARVTVTAADLRRLRGAVAGLGDPELMRQAWR
B3: binds [3]; binds [4].
